Molecular target: the molecule itself
Assay: cross-linking

B1: His6-PfORC1N_(1–238) (domain or fragment, Plasmodium falciparum 3D7, UniProt Q8I615 1-238, looked up)
chain: MTPKKKIFQNFQANDNEILSPTKKGIKLNVSKLNILNFENTIITKEKTNYEYKASLNKEIDEVLNNNNIINTHNNKKNNLNLYDYNNIKNSTHEFYIDLNEQNKQTIKYNDNKFTPINKKEKYNLDETSSSSISSSLTNISSSLTNISSSLTNISSSLSNSLDEKKKKKKIKKNNSTIINILNNNNNNSNIHHNNKHNIYNKYNISKKPQNKEIHTLPSNHQIKKKSNNTYNTCQQKM
stoichiometry N: 2

From paper PMC3384324 (Nucleic Acids Research, 2012)
